Results: patent US20200123268A1 (UNIVERSIT DEGLI STUDI MAGNA GRAECIA CATANZARO, published 2020)

T1: human CD43, endogenous, on primary cells and cell lines that carry the UMG1 epitope (human, UniProt P16150 20-400, native glycosylation of the cell concerned)
T1 construct: also called UMG1 antigen; the target
T1 sequence: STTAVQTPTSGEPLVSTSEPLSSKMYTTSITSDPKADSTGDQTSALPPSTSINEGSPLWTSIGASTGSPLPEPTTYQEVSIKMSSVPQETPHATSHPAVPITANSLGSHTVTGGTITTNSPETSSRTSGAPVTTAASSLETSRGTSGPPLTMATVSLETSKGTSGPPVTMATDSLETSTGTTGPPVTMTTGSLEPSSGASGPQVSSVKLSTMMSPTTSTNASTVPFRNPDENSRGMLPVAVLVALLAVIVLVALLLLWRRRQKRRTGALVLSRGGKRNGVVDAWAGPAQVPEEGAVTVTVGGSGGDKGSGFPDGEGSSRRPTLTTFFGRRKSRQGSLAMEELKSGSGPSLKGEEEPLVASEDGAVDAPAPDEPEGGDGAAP

B1: humanized UMG1 antibody H3-L1 (VH3 + VL1) (antibody, IgG1, V domains shown)
VH: EVQLVESGGGLVQPGGSLRLSCVASGFTFSSFGMHWVRQAPGKGLEWVAYISSGSGNFYYVDTVKGRFTISRDNAKNSLYLQMNSLRAEDTAVYYCARSTYYHGSRGAMDYWGQGTLVTVSS
VL: EIVLTQSPATLSLSPGERATLSCSASSSVSSMYWYQQKPGLAPRLLIYDTSKMASGIPDRFSGSGSGTDFTLTISRLEPEDFAVYYCQQWSSYPPITFGQGTRLEIK
notes: The label follows the pattern H3-L4
B2: humanized UMG1 antibody H3-L3 (VH3 + VL3) (antibody, IgG1, V domains shown)
VH: EVQLVESGGGLVQPGGSLRLSCVASGFTFSSFGMHWVRQAPGKGLEWVAYISSGSGNFYYVDTVKGRFTISRDNAKNSLYLQMNSLRAEDTAVYYCARSTYYHGSRGAMDYWGQGTLVTVSS
VL: QVVMTQSPAFLSVTPGEKVTITCSASSSVSSMYWYQQKPDQAPKLLIYDTSKMASGVPSRFSGSGSGTDFTFTISSLEAEDAATYYCQQWSSYPPITFGGGTKVEIK
notes: as for B1
B3: humanized UMG1 antibody H1-L1 (VH1 + VL1) (antibody, IgG1, V domains shown)
VH: EVQLVESGGGLVQPGGSLRLSCAASGFTFSSFGMHWVRQAPGKGLEWVSYISSGSGNFYYVDTVKGRFTISRDNAKNSLYLQMNSLRAEDTAVYYCARSTYYHGSRGAMDYWGQGTLVTVSS
VL: EIVLTQSPATLSLSPGERATLSCSASSSVSSMYWYQQKPGLAPRLLIYDTSKMASGIPDRFSGSGSGTDFTLTISRLEPEDFAVYYCQQWSSYPPITFGQGTRLEIK
notes: as for B1
B4: humanized UMG1 antibody H1-L4 (VH1 + VL4) (antibody, IgG1, V domains shown)
VH: EVQLVESGGGLVQPGGSLRLSCAASGFTFSSFGMHWVRQAPGKGLEWVSYISSGSGNFYYVDTVKGRFTISRDNAKNSLYLQMNSLRAEDTAVYYCARSTYYHGSRGAMDYWGQGTLVTVSS
VL: QVVMTQSPAFLSVTPGEKVTITCSASSSVSSMYWYQLKPDQAPKLLIYDTSKMASGVPIRFSGSGSGTDFTFTVSSVEAEDAATYYCQQWSSYPPITFGGGTKVEIK
notes: as for B1
B5: humanized UMG1 antibody H4-L1 (VH4 + VL1) (antibody, IgG1, V domains shown)
VH: QVQLVESGGGVVQPGGSLRLSCVASGFTFSSFGMHWVRQAPGKGLEWVAYISSGSGNFYYVDTVKGRFTISRDNSKNTLYLQMNSLRAEDTAVYYCARSTYYHGSRGAMDYWGQGTLVTVSS
VL: EIVLTQSPATLSLSPGERATLSCSASSSVSSMYWYQQKPGLAPRLLIYDTSKMASGIPDRFSGSGSGTDFTLTISRLEPEDFAVYYCQQWSSYPPITFGQGTRLEIK
notes: as for B1
B6: humanized UMG1 antibody H2-L3 (VH2 + VL3) (antibody, IgG1, V domains shown)
VH: EVQLVESGGGLVQPGGSLRLSCVASGFTFSSFGMHWVRQAPGKGLEWVSYISSGSGNFYYVDTVKGRFTISRDNAKNSLYLQMNSLRAEDTAVYYCARSTYYHGSRGAMDYWGQGTLVTVSS
VL: QVVMTQSPAFLSVTPGEKVTITCSASSSVSSMYWYQQKPDQAPKLLIYDTSKMASGVPSRFSGSGSGTDFTFTISSLEAEDAATYYCQQWSSYPPITFGGGTKVEIK
notes: as for B1
B7: humanized UMG1 antibody H2-L4 (VH2 + VL4) (antibody, IgG1, V domains shown)
VH: EVQLVESGGGLVQPGGSLRLSCVASGFTFSSFGMHWVRQAPGKGLEWVSYISSGSGNFYYVDTVKGRFTISRDNAKNSLYLQMNSLRAEDTAVYYCARSTYYHGSRGAMDYWGQGTLVTVSS
VL: QVVMTQSPAFLSVTPGEKVTITCSASSSVSSMYWYQLKPDQAPKLLIYDTSKMASGVPIRFSGSGSGTDFTFTVSSVEAEDAATYYCQQWSSYPPITFGGGTKVEIK
notes: as for B1
B8: humanized UMG1 antibody H4-L2 (VH4 + VL2) (antibody, IgG1, V domains shown)
VH: QVQLVESGGGVVQPGGSLRLSCVASGFTFSSFGMHWVRQAPGKGLEWVAYISSGSGNFYYVDTVKGRFTISRDNSKNTLYLQMNSLRAEDTAVYYCARSTYYHGSRGAMDYWGQGTLVTVSS
VL: EIALTQSPATLSLSPGERATLSCSASSSVSSMYWYQLKPGLAPRLLIYDTSKMASGIPIRFSGSGSGTDFTLTVSRVEPEDFAVYYCQQWSSYPPITFGQGTRLEIK
notes: as for B1
B9: humanized UMG1 antibody H4-L3 (VH4 + VL3) (antibody, IgG1, V domains shown)
VH: QVQLVESGGGVVQPGGSLRLSCVASGFTFSSFGMHWVRQAPGKGLEWVAYISSGSGNFYYVDTVKGRFTISRDNSKNTLYLQMNSLRAEDTAVYYCARSTYYHGSRGAMDYWGQGTLVTVSS
VL: QVVMTQSPAFLSVTPGEKVTITCSASSSVSSMYWYQQKPDQAPKLLIYDTSKMASGVPSRFSGSGSGTDFTFTISSLEAEDAATYYCQQWSSYPPITFGGGTKVEIK
notes: as for B1
B10: humanized UMG1 antibody H3-L2 (VH3 + VL2) (antibody, IgG1, V domains shown)
VH: EVQLVESGGGLVQPGGSLRLSCVASGFTFSSFGMHWVRQAPGKGLEWVAYISSGSGNFYYVDTVKGRFTISRDNAKNSLYLQMNSLRAEDTAVYYCARSTYYHGSRGAMDYWGQGTLVTVSS
VL: EIALTQSPATLSLSPGERATLSCSASSSVSSMYWYQLKPGLAPRLLIYDTSKMASGIPIRFSGSGSGTDFTLTVSRVEPEDFAVYYCQQWSSYPPITFGQGTRLEIK
notes: as for B1
B11: humanized UMG1 antibody H2-L1 (VH2 + VL1) (antibody, IgG1, V domains shown)
VH: EVQLVESGGGLVQPGGSLRLSCVASGFTFSSFGMHWVRQAPGKGLEWVSYISSGSGNFYYVDTVKGRFTISRDNAKNSLYLQMNSLRAEDTAVYYCARSTYYHGSRGAMDYWGQGTLVTVSS
VL: EIVLTQSPATLSLSPGERATLSCSASSSVSSMYWYQQKPGLAPRLLIYDTSKMASGIPDRFSGSGSGTDFTLTISRLEPEDFAVYYCQQWSSYPPITFGQGTRLEIK
notes: as for B1
B12: humanized UMG1 antibody H2-L2 (VH2 + VL2) (antibody, IgG1, V domains shown)
VH: EVQLVESGGGLVQPGGSLRLSCVASGFTFSSFGMHWVRQAPGKGLEWVSYISSGSGNFYYVDTVKGRFTISRDNAKNSLYLQMNSLRAEDTAVYYCARSTYYHGSRGAMDYWGQGTLVTVSS
VL: EIALTQSPATLSLSPGERATLSCSASSSVSSMYWYQLKPGLAPRLLIYDTSKMASGIPIRFSGSGSGTDFTLTVSRVEPEDFAVYYCQQWSSYPPITFGQGTRLEIK
notes: as for B1
B13: humanized UMG1 antibody H1-L2 (VH1 + VL2) (antibody, IgG1, V domains shown)
VH: EVQLVESGGGLVQPGGSLRLSCAASGFTFSSFGMHWVRQAPGKGLEWVSYISSGSGNFYYVDTVKGRFTISRDNAKNSLYLQMNSLRAEDTAVYYCARSTYYHGSRGAMDYWGQGTLVTVSS
VL: EIALTQSPATLSLSPGERATLSCSASSSVSSMYWYQLKPGLAPRLLIYDTSKMASGIPIRFSGSGSGTDFTLTVSRVEPEDFAVYYCQQWSSYPPITFGQGTRLEIK
notes: as for B1
B14: humanized UMG1 antibody H4-L4 (VH4 + VL4) (antibody, IgG1, V domains shown)
VH: QVQLVESGGGVVQPGGSLRLSCVASGFTFSSFGMHWVRQAPGKGLEWVAYISSGSGNFYYVDTVKGRFTISRDNSKNTLYLQMNSLRAEDTAVYYCARSTYYHGSRGAMDYWGQGTLVTVSS
VL: QVVMTQSPAFLSVTPGEKVTITCSASSSVSSMYWYQLKPDQAPKLLIYDTSKMASGVPIRFSGSGSGTDFTFTVSSVEAEDAATYYCQQWSSYPPITFGGGTKVEIK
notes: as for B1
B15: humanized UMG1 antibody H1-L3 (VH1 + VL3) (antibody, IgG1, V domains shown)
VH: EVQLVESGGGLVQPGGSLRLSCAASGFTFSSFGMHWVRQAPGKGLEWVSYISSGSGNFYYVDTVKGRFTISRDNAKNSLYLQMNSLRAEDTAVYYCARSTYYHGSRGAMDYWGQGTLVTVSS
VL: QVVMTQSPAFLSVTPGEKVTITCSASSSVSSMYWYQQKPDQAPKLLIYDTSKMASGVPSRFSGSGSGTDFTFTISSLEAEDAATYYCQQWSSYPPITFGGGTKVEIK
notes: as for B1

Each binder was assayed against T1, human CD43, endogenous, on primary … (assay: flow cytometry, antibody at 1 ug/ml, FITC mouse anti-human IgG secondary; histogram grid, cell line not labelled (HPB-ALL or H9)).
Protocol: Each screening was performed twice, for a total of 4 replicates.
B1: binds. B2: binds. B3: binds. B4: binds. B5: binds. B6: binds. B7: binds. B8: binds. B9: binds. B10: binds. B11: binds. B12: binds. B13: binds. B14: binds. B15: binds.
